Assay [1] has as its target 70S ribosome on biotinylated mRNA with the UAA stop codon in the A site (no release factor bound) (E. coli) (UniProt P0AG67). The assay can be described thus: single-molecule fluorescence in zero-mode waveguides (factor occupancy with intersubunit FRET); as a4 (MF-UAA mRNA, Cy5.5-RF1, Cy5-RF3, GTP) but at 12°C.
Assay [2] addresses post-termination RF1-70S complex (Cy5.5-RF1 bound to the non-rotated 70S ribosome) (not stated | E. coli) (UniProt P0A7I0). The assay can be described thus: single-molecule fluorescence in zero-mode waveguides (factor occupancy with intersubunit FRET); Cy5-RF3 occupancy on the Cy5.5-RF1-bound non-rotated ribosome with 50% GDP (1:1 ratio of GTP:GDP); triple exponential fit.
Assay [3] has the same target. The assay can be described thus: single-molecule fluorescence in zero-mode waveguides (factor occupancy with intersubunit FRET); pre-elongated immobilised 70S with the stop codon in the A site; 75 nM Cy5-RF3, 20 nM Cy5.5-RF1, 4 mM GDP, polymix buffer, 20°C.
Assay [4] addresses 70S ribosome on biotinylated mRNA with the UAA stop codon in the A site (no release factor bound) (E. coli) (UniProt P0AG67). The assay can be described thus: single-molecule fluorescence in zero-mode waveguides (factor occupancy with intersubunit FRET); ribosome immobilised through biotinylated mRNA; Cy5.5-RF1 and Cy5-RF3 tracked together, 4 mM GTP, Tris-based polymix buffer pH 7.5, 20°C.

Assay [5] concerns the target post-termination RF1-70S complex (Cy5.5-RF1 bound to the non-rotated 70S ribosome) (not stated | E. coli) (UniProt P0A7I0). Described as above.
Assay [6] has as its target 70S ribosome on biotinylated mRNA with the UAA stop codon in the A site (no release factor bound) (E. coli) (UniProt P0AG67). The assay can be described thus: single-molecule fluorescence in zero-mode waveguides (factor occupancy with intersubunit FRET); pre-elongated immobilised 70S with the stop codon in the A site; 75 nM Cy5-RF3, 20 nM Cy5.5-RF1, 4 mM GDPCP, polymix buffer, 20°C, no RRF or EF-G.

For assay [7], the target named is post-termination RF1-70S complex (Cy5.5-RF1 bound to the non-rotated 70S ribosome) (not stated | E. coli) (UniProt P0A7I0). Described as above.
The target of assay [8] is 70S ribosome on biotinylated mRNA with the UAA stop codon in the A site (no release factor bound) (E. coli) (UniProt P0AG67). The assay can be described thus: single-molecule fluorescence in zero-mode waveguides (factor occupancy with intersubunit FRET); as a1 with Cy5.5-RF1 and dark RF3, 4 mM GTP, but at 30°C.
Assay [9] deals with 70S ribosome with bound wild-type (dark) RF3, rotated post-termination state (E. coli MG1655 K12 | E. coli) (UniProt P0A7I4). The assay is described as above.
The target in assay [10] is 70S ribosome with bound Cy5-RF3, rotated post-termination state (E. coli MG1655 K12 | E. coli) (UniProt P0A7I4). Kind of assay: single-molecule fluorescence in zero-mode waveguides (factor occupancy with intersubunit FRET); as a4 (MF-UAA mRNA, Cy5.5-RF1, Cy5-RF3, GTP) but at 12°C.
Assay [11] shares this target. The assay can be described thus: single-molecule fluorescence in zero-mode waveguides (factor occupancy with intersubunit FRET); ribosome immobilised through biotinylated mRNA; Cy5.5-RF1 and Cy5-RF3 tracked together, 4 mM GTP, Tris-based polymix buffer pH 7.5, 20°C.
In assay [12] the target is 70S ribosome on biotinylated mRNA with the UAA stop codon in the A site (no release factor bound) (E. coli) (UniProt P0AG67). Kind of assay: single-molecule fluorescence in zero-mode waveguides (factor occupancy with intersubunit FRET); Cy5.5-RF1 and Cy5-RF3 with GTP and the antimicrobial peptide Api137 added; occupancy limited by Cy5.5 photobleaching and movie time (6 min).

Assay [13] addresses 70S ribosome with bound Cy5-RF3, rotated post-termination state (E. coli MG1655 K12 | E. coli) (UniProt P0A7I4). The assay can be described thus: single-molecule fluorescence in zero-mode waveguides (factor occupancy with intersubunit FRET); pre-elongated immobilised 70S with the stop codon in the A site; 75 nM Cy5-RF3, 20 nM Cy5.5-RF1, 4 mM GDPCP, polymix buffer, 20°C, no RRF or EF-G.

Assay [14] addresses 70S ribosome on biotinylated mRNA with the UAA stop codon in the A site (no release factor bound) (E. coli) (UniProt P0AG67). The assay can be described thus: single-molecule fluorescence in zero-mode waveguides (factor occupancy with intersubunit FRET); ribosome immobilised through biotinylated MF-UAA mRNA on Neutravidin; Cy5.5-RF1 or Cy5.5-RF2 with 0-200 nM dark RF3, RRF, EF-G, 4 mM GTP; Tris-based polymix buffer pH 7.5; 20°C.

The target of assay [15] is 70S ribosome with bound wild-type (dark) RF3, rotated post-termination state (E. coli MG1655 K12 | E. coli) (UniProt P0A7I4). The assay is described as above.
In assay [16] the target is 70S ribosome on biotinylated mRNA with the UAA stop codon in the A site (no release factor bound) (E. coli) (UniProt P0AG67). Kind of assay: single-molecule fluorescence in zero-mode waveguides (factor occupancy with intersubunit FRET); Cy5.5-RF1 in the absence of RRF, with and without RF3; first-bound and rebound RF1 events on the immobilised ribosome (Supplementary Figure S2); temperature not given.

In assay [17] the target is 70S ribosome with bound wild-type (dark) RF3, rotated post-termination state (E. coli MG1655 K12 | E. coli) (UniProt P0A7I4). Described as above.

In general, kon refers to the second-order rate constant of association. Low values mean slow association, high ones fast association. In general, koff refers to the rate constant with which the complex falls apart. In assay [1], “Cy5-RF3 (ybbR-tagged RF3 labelled with Cy5-CoA) (from UniProt P0A7I4 1-529) (natural protein)” registered a fold slow-down of dissociation at 12°C against 20°C of 21 fold. Besides, in assay [2], the dissociation rate of the slowest phase of a triple exponential came out at 0.3 s⁻¹. Also, the k3off1 (sampling mode, fast phase of a double exponential) in [3] was found to be 4.6 s⁻¹; in assay [5] it was 1.3 s⁻¹; in [7] it was 1.1 s⁻¹. In addition, the k3off2 (sampling mode, slow phase of a double exponential) worked out at 0.25 s⁻¹ in assay [3], 0.3 s⁻¹ in assay [5] and 0.18 s⁻¹ in [7]. In addition, the kon was 2e+06 M⁻¹ s⁻¹ in assay [3], 2.3e+06 M⁻¹ s⁻¹ in assay [5] and 2e+06 M⁻¹ s⁻¹ in assay [7]. For the same substance, the koff in assay [4] worked out at 4 s⁻¹; in [6] it was 0.0164 s⁻¹.

Substance “Cy5.5-labeled RF1 (from UniProt P0A7I0 1-360) (natural protein)” gave a kiAR- (spontaneous and simultaneous dissociation and ribosome rotation from the post-termination ribosome) in assay [8] of 0.072 s⁻¹. The same substance had a koff in assay [9] of 2.5 s⁻¹. The substance further had a fold slow-down of dissociation at 12°C against 20°C in assay [10] of 2.6 fold. For the same substance, the koff in [11] came to 0.69 s⁻¹. This substance also came in with an occupancy time with Api137 (photobleaching and movie-time limit) in assay [12] of 300 s. The substance also yielded a dissociation rate constant (koff) in assay [13] of 0.14 s⁻¹. Also, in assay [14], the kiAR- (spontaneous and simultaneous dissociation and ribosome rotation from the post-termination ribosome) came out at 0.027 s⁻¹; the on-rate constant (kon) came to 2.1e+07 M⁻¹ s⁻¹; the mean dwell time on the terminating ribosome in the absence of RF3 (tau 1BD-) turned out to be 66 s. In addition, in assay [15], the k1RD+ (single RF1 binding event in the presence of RRF) was 0.87 s⁻¹ and the off-rate (koff) worked out at 0.76 s⁻¹. In assay [16], this substance showed a kiAR- (first-bound ribosomes, no RRF) of 0.04 s⁻¹ and a kiAR- (rebound ribosomes, no RRF) of 0.08 s⁻¹. Besides, in assay [17], the k1RD+ (first-bound RF1, no RRF) was 0.77 s⁻¹ and the k1RD+ (rebound RF1, no RRF) was determined as 1 s⁻¹.

On to “Cy5.5-labeled RF2 (from UniProt P07012 1-365) (natural protein)”, for which, in assay [14], the kiAR- (spontaneous and simultaneous dissociation and ribosome rotation from the post-termination ribosome) was 0.04 s⁻¹; the mean dwell time on the terminating ribosome in the absence of RF3 (tau 2BD-) was 38 s. Besides, the dissociation rate constant (koff) in assay [15] was found to be 3.5 s⁻¹.
